The IC50 is the concentration that inhibits the measured activity by half. Read a low IC50 as greater potency in that assay.

Where no end group is shown, it is not given here. A value given as a limit tells only on which side of the number the result lay.

The target in assay [1] is endogenous GLP-1, calcitonin, and GIP receptors of RINm5f cells. The assay is described as follows: cell-based or functional assay.
The target of assay [2] is T1, GLP-1 receptor (endogenous, RINm5F cell membranes; rat thyroid carcinoma 6-23 clone 6 cells) (rat, UniProt P32301 22-463).
T1 sequence (looked up): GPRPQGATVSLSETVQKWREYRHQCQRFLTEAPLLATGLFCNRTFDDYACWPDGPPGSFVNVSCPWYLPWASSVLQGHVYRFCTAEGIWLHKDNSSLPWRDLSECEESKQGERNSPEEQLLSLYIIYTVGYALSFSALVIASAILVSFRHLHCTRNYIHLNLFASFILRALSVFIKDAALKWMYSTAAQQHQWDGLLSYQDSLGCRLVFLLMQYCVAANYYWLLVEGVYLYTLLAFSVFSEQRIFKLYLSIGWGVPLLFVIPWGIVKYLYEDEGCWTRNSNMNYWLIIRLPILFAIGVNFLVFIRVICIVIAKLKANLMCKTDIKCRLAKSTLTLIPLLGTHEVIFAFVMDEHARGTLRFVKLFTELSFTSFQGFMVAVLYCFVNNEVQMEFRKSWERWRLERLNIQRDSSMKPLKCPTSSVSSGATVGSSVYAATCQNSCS
Kind of assay: cell-based or functional assay.

For assay [3], the target named is T1, GLP-1 receptor (endogenous, RINm5F cell …). The assay is described as follows: displacement of [125I]GLP-1 from RINm5F cell membranes (GLP RBA). The protocol: GLP-1 receptor binding activity and affinity can be measured using a binding displacement assay in which the receptor source is RINm5F cell membranes, and the ligand is [¹²⁵I]GLP-1. Homogenized RINm5F cell membranes are incubated in 20 mM HEPES buffer with 40,000 cpm [¹²⁵I]GLP-1 tracer, and varying concentrations of test compound for 60 minutes at 23° C. with constant mixing. Reaction mixtures are filtered through glass filter pads presoaked with 0.3% PEI solution and rinsed with ice-cold phosphate buffered saline. Bound counts are determined using a scintillation counter. Binding affinities are calculated using GraphPad Prism software (GraphPad Software, Inc., San Diego, Calif.).
On the technique in general: Loss of bound radioactivity is the signal in a displacement assay; it reports binding, not function.

In the case of HAEGTFTSDVTQQLDEKAAKEFIDWLINPGSEGIKSI (also called nmGLP-1 analog) [SEQ ID NO 14], in assay [1], the GLP/GIP/CT cAMP(RIN) EC50 stood at 18 nM. In assay [2], the “GLP-1 cAMP (6-23) EC50” value stood at 2.2 nM.
HAEGTFTSDVTQQLDEKAAKEFIDWLINGGPSKEIIS (also called nmGLP-1 analog) [SEQ ID NO 11]: the GLP/GIP/CT cAMP(RIN) EC50 in assay [1] stood at 0.59 nM. Moreover, the concentration for half-maximal inhibition (IC50) in assay [3] is 2.3 nM.
For HXEGTFTSDVTQQLDEKAAKEFIDWLINGGPSKEIIS (here or on the partner: dAla at position 2 (a = dAla)), the GLP/GIP/CT cAMP(RIN) EC50 in assay [1] was 0.048 nM.
As to HXEGTFTSDVTQQLDEKAAKEFIDWLINGGPSKEIIS (dAla at position 2 (a = dAla), also called nmGLP-1 analog), in assay [3], the IC50 is 1.9 nM.

B1: SEQ ID NO 48 (peptide)
peptide: HADGTYTSDVSSYLQDQAAKDFITWLKSGQPKPDAVET
notes: also called nmGLP-1 peptide; naturally occurring nmGLP-1
In the case of B1, the GLP/GIP/CT cAMP(RIN) EC50 in assay [1] worked out at 14 nM. In assay [2], the “GLP-1 cAMP (6-23) EC50” value was determined as 2.34 nM.
As for HAEGTFTNDMTNYLEEKAAKEFVGWLIKGRS (also called nmGLP-1 analog) [SEQ ID NO 6], in assay [1], the GLP/GIP/CT cAMP(RIN) EC50 was determined as 1.23 nM.
For HAEGTYTNDVTEYLEEKAAKEFIEWLIKGKPK [SEQ ID NO 40], the “GLP-1 cAMP (6-23) EC50” value in assay [2] came to 0.12 nM.
For HAEGTFTSDVTQQLDEKAAKEFIDWLINGGPSSGAPPPS [SEQ ID NO 9], in assay [1], the GLP/GIP/CT cAMP(RIN) EC50 turned out to be 0.28 nM.
For the molecule HAEGTYTNDVTEYLEEKAAKEFIEWLIGKPKKIRYS (also called nmGLP-1 analog) [SEQ ID NO 35], the “GLP-1 cAMP (6-23) EC50” value in assay [2] came out at 0.172 nM.
As to HAEGTYTNDVTEYLEEKAAKEFIEWLIKGPKKIRYS (also called nmGLP-1 analog) [SEQ ID NO 36], the “GLP-1 cAMP (6-23) EC50” value in assay [2] came to 0.086 nM.
Consider HXEGTFTSDVTQQLDEKAAKEFIDWLIN (here or on the partner: dAla at position 2 (a = dAla)) [SEQ ID NO 8], for which the GLP/GIP/CT cAMP(RIN) EC50 in assay [1] was 19 nM.
In the case of HAEGTYTNDVTEYLEEKAAKEFIEW [SEQ ID NO 46], the “GLP-1 cAMP (6-23) EC50” value in assay [2] is 1940 nM.
In the case of HAEGTFTSDVTQQLDEKAAKEFIDWLIN (also called nmGLP-1 analog) [SEQ ID NO 7], the GLP/GIP/CT cAMP(RIN) EC50 in assay [1] is 4.7 nM.
With HAEGTYTNDVTEYLEEKAAKEFIEWLINGGPSKEIIS (also called nmGLP-1 analog) [SEQ ID NO 21], in assay [1], the GLP/GIP/CT cAMP(RIN) EC50 worked out at 1 nM. In assay [3], the IC50 stood at 2.1 nM.
For HAEGTYTNDVTQFLEEKAAKEFIDWLIKGKPKKQRLS [SEQ ID NO 50], in assay [1], the GLP/GIP/CT cAMP(RIN) EC50 was 0.14 nM.
On the same count and under the same terms, the figure for HXEGTYTNDVTQFLEEKAAKEFIDWLIKGKPKKQRLS (here or on the partner: Abu (2-Aminobutyric acid) at position 2) is 0.146 nM; for HXEGTYTNDVTQFLEEKAAKEFIDWLIKGKPKKQRLS (here or on the partner: dAla at position 2 (a = dAla)) [SEQ ID NO 54] it is 0.435 nM.
With HXEGTYTNDVTQFLEEKAAKEFIDWLIKGKPKKQRLS (Abu (2-Aminobutyric acid) at position 2), the “GLP-1 cAMP (6-23) EC50” value in assay [2] stood at 0.12 nM.

B2: SEQ ID NO 1 (peptide)
peptide: HAEGTFTSDVTQQLDEKAAKEFIDWLINGGPSKEIIS-OH
notes: as for B1
As for B2, the GLP/GIP/CT cAMP(RIN) EC50 in assay [1] worked out at 1.9 nM. For the same molecule, the “GLP-1 cAMP (6-23) EC50” value in assay [2] was determined as 7.7 nM.
For the molecule HAEGTFTSDVTQQLDEKAAKEFIDWLINGGASKEIIS (also called nmGLP-1 analog) [SEQ ID NO 12], in assay [1], the GLP/GIP/CT cAMP(RIN) EC50 turned out to be 0.29 nM. This molecule had an IC50 in assay [3] of 8.8 nM.
Consider HAEGTFTSDVTQQLDEKAAKEFIDALINGGPSKEIIS (also called nmGLP-1 analog) [SEQ ID NO 13], for which, in assay [1], the GLP/GIP/CT cAMP(RIN) EC50 was 196 nM.
Take HAEGTYTNDVTEYLEEKAAKFIEWLIKGKPKKIRYS (also called nmGLP-1 analog) [SEQ ID NO 31]: the “GLP-1 cAMP (6-23) EC50” value in assay [2] came to 44 nM.
In the case of HAEGTYTNDVTEYLEEKAAKEFIEWL [SEQ ID NO 44], the “GLP-1 cAMP (6-23) EC50” value in assay [2] worked out at 23 nM.
As to HXEGTYTNDVTEYLEEKAAKEFIEWLIKGKPKKIRYS (here or on the partner: dAla at position 2 (a = dAla)) [SEQ ID NO 23], the GLP/GIP/CT cAMP(RIN) EC50 in assay [1] was 0.22 nM.
Turning to HXEGTYTNDVTEYLEEKAAKEFIEWLIKGKPKKIRYS (here or on the partner: Aib (2-Aminoisobutyric acid) at position 2), the GLP/GIP/CT cAMP(RIN) EC50 in assay [1] came out at 0.544 nM.
As for HXEGTYTNDVTEYLEEKAAKEFIEWLIKGKPKKIRYS (Abu (2-Aminobutyric acid) at position 2, also called nmGLP-1 analog) [SEQ ID NO 28], the IC50 in assay [3] turned out to be 0.067 nM.
Same read-out and setting: the figure for HXEGTYTNDVTEYLEEKAAKEFIEWLIKGKPKKIRYS (Aib (2-Aminoisobutyric acid) at position 2, also called nmGLP-1 analog) is 0.1 nM.
Regarding HAEGTYTNDVTEYLEEKAAKEFIEWLIN (also called nmGLP-1 analog) [SEQ ID NO 24], the GLP/GIP/CT cAMP(RIN) EC50 in assay [1] amounted to 0.85 nM. In assay [3], the IC50 stood at 1.3 nM.
In the same order, the values of HAEGTYTNDVTEYLEEKAAKEFIEWLIK (also called nmGLP-1 analog) [SEQ ID NO 25] are 0.53 nM and 0.54 nM.
In the same order, the values of HAEGTFTSDVTQQLEEKAAKEFIEWLIKGKPKKIRYS (also called nmGLP-1 analog) [SEQ ID NO 22] are 0.1 nM and 0.067 nM.

B3: SEQ ID NO 2 (peptide)
peptide: HAEGTYTNDVTEYLEEKAAKEFIEWLIKGKPKKIRYS
notes: as for B1
With B3, in assay [1], the GLP/GIP/CT cAMP(RIN) EC50 came to 0.36 nM. Also, the “GLP-1 cAMP (6-23) EC50” value in assay [2] came to 0.82 nM.
In the same order, the values of HGEGTYTNDVTEYLEEKAAKEFIEWLIKGKPKKIRYS (also called nmGLP-1 analog) [SEQ ID NO 26] are 0.967 nM and 0.16 nM.
On to HXEGTYTNDVTEYLEEKAAKEFIEWLI (dAla at position 2 (a = dAla)) [SEQ ID NO 43], for which the “GLP-1 cAMP (6-23) EC50” value in assay [2] turned out to be 0.14 nM.
The same measure, in the same setting: for HAEGTYTNDVTEYLEEKAAKEFIEWLIPKKIRYS (also called nmGLP-1 analog) [SEQ ID NO 32] the value was 8.3 nM.
On the same count and under the same terms, for HXEGTYTNDVTEYLEEKAAKEFIEWL (dAla at position 2 (a = dAla)) [SEQ ID NO 45] the value was 34 nM; for EGTYTNDVTEYLEEKAAKEFIEWLIKGKPKKIRYS (also called nmGLP-1 analog) [SEQ ID NO 37], over 1000 nM; for HAEGTYTNDVTEYLEEKAAKEFIEWLI [SEQ ID NO 42], 0.22 nM.
